One data set is described as follows: circular dichroism. Particulars: 50 mM phosphate buffer; pH 7; 20 °C; 100 uM.
The nature of data set [1]: Circular dichroism, determination of alpha helical content. It is filed as physicochemical. As to the method: CD experiments were carried out using a Jasco J815 spectropolarimeter. Spectra were recorded with 100 μM of peptides dissolved in phosphate buffer 50 mM, pH 7, using a 1 mm pathlength CD cuvette at 20 °C, over a wavelength range of 190-260 nm. Continuous scanning mode was used, with a response of 1.0 s with 0.1 nm steps and a bandwidth of 2 nm. The signal to noise ratio was improved by acquiring each spectrum over an average of two scans. Baseline was corrected by subtracting the background from the sample spectrum.
Alpha helical content was determined using the following equation: % Helix = ([θ])obs * 100)/(-39500 * (1-2.57/n), where ([θ])obs is the mean residue ellipticity at 222 nm and n the number of peptide bonds.
In general terms: Circular dichroism is the unequal absorption of left and right circularly polarised light.

The target in data set [2] is C4D peptide derived from the alpha 5 helix of cyclin D1 (Homo sapiens, UniProt P24385). The data set can be described thus: Fluorescence titration of TP2-Rho-labelled C4D peptide with CDK4 C helix-derived peptides. It is filed as binding. The note with it: 200 nM TP2-Rho labelled C4D peptide, PBS, 30 °C, average of n = 3 to 5 ± SD. As to the method: TP2-Rho-labelled peptides: peptides were labelled on a unique cysteine residue with a five-fold molar excess of TP2-Rho-maleimide overnight, and then purified from free dye on NAP-5 columns (GE Healthcare), as described previously.
(§1) Fluorescence titration assays were performed in 96-well plates in a thermostated chamber (Clariostar spectrofluorimeter, BMG) at 30 °C in 200 μL phosphate buffer saline using 200 nM fluorescently-labelled peptides or proteins. The fluorescence emission intensity of TP2-Rho-labelled peptides was recorded at 614 nm following excitation at 510 nm. The fluorescence emission intensity of mant-ATP was measured at […]. Data analysis was performed using the GraFit Software (Erathicus Ltd) and curve fitting was performed using a quadratic equation, as described previously. Experiments were performed in triplicate, and Kd values represent the average calculated for n = 3 to 5 experiments, together with standard deviation.

For another data set, the system named is A549 cells. The data set can be described thus: cells. It is filed as cell-based, human. The note with it: 48 hours, crystal violet, at least two independent experiments (n=4/experiment) ± SD, Grafit; read-out: IC50 A549 cell proliferation. As to the method:
Non-small cell lung cancer A549, H358 and PC9 cell lines used in this study. Cell culture media, serum and antibiotics were purchased from Life Technologies. All cell lines were cultured in RPMI + Glutamax supplemented with 10% FCS, 100 units/mL penicillin (G sodium salt) and 100 µg/mL streptomycin at 37 °C in an atmosphere containing 5% CO2. […] Stock solutions of drugs were prepared in DMSO and freshly diluted in PBS to the desired concentration prior to use, then added onto unsynchronized cells cultured to subconfluency (60-70%), which were then further incubated for 24, 48 or 72 h. Cell proliferation was determined by crystal violet assay following treatment with drugs. Cells were washed with PBS, fixed with 3.7% formaldehyde for 10 min and then incubated with 0.1% crystal violet dye for 30 min. After rinsing, crystals were dissolved in 10% acetic acid and viability was determined by measuring absorbance at 595 nm.

On the set-up of data set [3]: species or system mice. The note with it: mouse, in vivo, iv.
Details of data set [4]: species or system mice. The note with it: mouse, in vivo. As for the experimental part:
Five weeks after the inoculation of H358-Luc cells, when bioluminescent orthotopic tumours were detected, nude mice were randomly divided into 6 groups. Mice were treated with vehicle (control, n = 14), Abemaciclib (n = 10), or P2-short administered intravenously (n = 10) or intrapulmonary (n = 10), or treated with a combination of Abemaciclib and P2-short (intravenous administration of P2-short, n = 10; intrapulmonary administration of P2-short, n = 10). Mice were daily orally treated for three weeks with 10 mg/kg Abemaciclib. P2-short was either administered via the tail vein three times a week for three weeks under anesthesia (isoflurane/air 4% for induction and 1.5% thereafter) with 200 μL at 0.9 mg/kg, or administered intrapulmonary two times a week for three weeks under anesthesia with 50 μL at 0.45 mg/kg. Intrapulmonary administration of P2-short was performed using a catheter connected to a FMJ-250-high-pressure syringe (Penn-Centur, Inc) and introduced into the trachea of the animals using a dedicated laryngoscope. Mice were observed and weighed three times a week. Tumour growth was followed by in vivo bioluminescence imaging (IVIS Kinetic). After 3 weeks, mice were sacrificed, and blood samples were collected by cardiac puncture for biochemistry analysis ([…]). Lungs were collected for immunohistochemistry analyses. […]

Data set [5] deals with TP2-Rho-labelled CDK4 C helix peptide (unstapled) (human). The data set can be described thus: other fluorescence titration; 200 nM TP2-Rho-labelled peptide titrated with GST-cyclins or GST; 96-well plates, 30 °C, 200 μL phosphate buffer saline; quadratic fit; average Kd of n = 3 to 5 experiments.
The target in another data set is T1, CDK4/cyclin D1 (Homo sapiens, UniProt P11802).
T1 construct: GST (N); made in house; host or cells: E. coli
The data set can be described thus: Fluorescence titration of mant-ATP with CDK4/cyclin D1 with or without P2short. It is filed as binding. Particulars: 200 nM mant-ATP. As for the experimental part:
Recombinant GST-CDK4 and GST-cyclin D1 were expressed in E. coli by IPTG induction and purified by FPLC chromatography as described previously.
as §1

Another data set deals with GST-cyclin A (UniProt P20248 1-432). Nature of the data set: other fluorescence titration; 200 nM TP2-Rho-labelled peptide titrated with GST-cyclins or GST; 96-well plates, 30 °C, 200 μL phosphate buffer saline; quadratic fit; average Kd of n = 3 to 5 experiments. The note with it: both partners purified.
The next data set addresses GST-cyclin E (UniProt P24864 1-410). The description is as above. The note with it: both partners purified.
Another data set addresses T2, GST-cyclin Y (UniProt Q8ND76 1-341).
T2 construct: cyclin Y; source: E. coli BL21, purified (GSTrap HP, desalting column)
The description is as above. The note with it: both partners purified.

Another data set deals with T3, GST-cyclin D1 (UniProt P24385 1-295).
T3 construct: cyclin D1; also called recombinant cyclin; source: E. coli, IPTG induction, purified by FPLC chromatography
Described as above. Particulars: both partners purified.

Where two headings read alike, the source gives them in different places. Where a SMILES comes first, the peptide text is derived from it. Bridges are numbered along the chain shown (N, C = ends). [ ]: non-standard residue; d: D form. S5 = C=CCCC[C@](C)(N)C(=O)O; TP2‑Rho = not defined here

This note sets out measurements from publication PMC7019173, “Stapled peptide targeting the CDK4/Cyclin D interface combined with Abemaciclib inhibits KRAS mutant lung cancer growth” (Theranostics, 2020).

T1 sequence (P11802 whole entry): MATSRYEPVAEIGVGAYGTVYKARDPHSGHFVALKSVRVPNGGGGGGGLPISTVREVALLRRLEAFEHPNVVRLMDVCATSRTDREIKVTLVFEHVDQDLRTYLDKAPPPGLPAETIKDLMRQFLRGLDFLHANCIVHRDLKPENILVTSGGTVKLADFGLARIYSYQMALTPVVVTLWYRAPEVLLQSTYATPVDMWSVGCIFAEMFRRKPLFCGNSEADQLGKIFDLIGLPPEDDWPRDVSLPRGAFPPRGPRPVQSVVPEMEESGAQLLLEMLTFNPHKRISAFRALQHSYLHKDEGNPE
T1 sequence (P24385 whole entry partner): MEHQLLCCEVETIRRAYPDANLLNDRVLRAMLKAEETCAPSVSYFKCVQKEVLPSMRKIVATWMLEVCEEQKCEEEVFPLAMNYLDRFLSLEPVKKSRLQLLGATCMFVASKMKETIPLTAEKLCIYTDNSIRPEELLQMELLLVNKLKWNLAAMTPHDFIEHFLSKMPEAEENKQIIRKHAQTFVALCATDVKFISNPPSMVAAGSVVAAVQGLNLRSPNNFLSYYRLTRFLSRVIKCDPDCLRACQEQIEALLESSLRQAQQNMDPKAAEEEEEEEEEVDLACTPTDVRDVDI
T2 sequence (Q8ND76 whole entry): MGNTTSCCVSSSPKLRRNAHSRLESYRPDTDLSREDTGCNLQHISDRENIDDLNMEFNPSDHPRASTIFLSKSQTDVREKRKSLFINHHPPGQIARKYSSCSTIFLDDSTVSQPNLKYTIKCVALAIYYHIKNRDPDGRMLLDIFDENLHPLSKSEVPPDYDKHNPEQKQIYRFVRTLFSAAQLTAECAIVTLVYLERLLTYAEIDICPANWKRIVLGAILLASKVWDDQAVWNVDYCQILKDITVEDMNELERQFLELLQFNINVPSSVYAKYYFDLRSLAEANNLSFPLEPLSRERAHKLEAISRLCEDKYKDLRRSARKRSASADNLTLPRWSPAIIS
T3 sequence (P24385 whole entry): as the sequence (P24385 whole entry partner) above

`CC(=O)N[C@@H](CS)C(=O)N[C@@H](C)C(=O)N1CCC[C@H]1C(=O)N[C@@H](C)C(=O)N[C@@H](CO)C(=O)N[C@H](C(=O)N[C@@H](C)C(=O)N[C@@H](C)C(=O)N[C@@]1(C)CCCC=CCCC[C@@](C)(C(=O)N[C@@H](C)C(=O)N[C@@H](CCCNC(=N)N)C(=O)N[C@@H](CC(C)C)C(N)=O)NC(=O)[C@H](CC(C)C)NC(=O)[C@H](C)NC(=O)[C@H](CCCCN)NC1=O)[C@@H](C)O` (Ac-CAPASTAA[S5]KAL[S5]ARL-NH2; staple 9-13) yielded a helicity in the data set “circular dichroism” of 34%.
`CC[C@H](C)[C@H](NC(=O)[C@@H]1CCCN1C(=O)[C@H](CC(C)C)NC(C)=O)C(=O)N[C@@H](CO)C(=O)N[C@H](C(=O)N[C@H](C(=O)N[C@@H](CCCNC(=N)N)C(=O)N[C@@H](CCC(=O)O)C(=O)N[C@H](C(=O)N[C@@H](C)C(=O)N[C@@H](CC(C)C)C(=O)N[C@@H](CC(C)C)C(=O)N[C@@H](CCCNC(=N)N)C(=O)N[C@@H](CCCNC(=N)N)C(=O)N[C@@H](CC(C)C)C(N)=O)C(C)C)C(C)C)[C@@H](C)O` [CDK4 C peptide short] (Ac-LPISTVREVALLRRL-NH2): the helicity in the data set “circular dichroism” is 14%. Further, the “% helix (alpha helical content)” value in data set [1] (CD, 100 μM peptide in phosphate buffer 50 mM, pH 7, 20 °C, from mean residue ellipticity at 222 nm) is listed as 14%. The “conformation in solution (CD)” value in data set [1] (phosphate buffer) is reported as “disordered in solution”.
`CC[C@H](C)[C@H](NC(=O)[C@@H]1CCCN1C(=O)[C@H](CC(C)C)NC(=O)CNC(C)=O)C(=O)N[C@@]1(C)CCCC=CCCC[C@@](C)(C(=O)N[C@H](C(=O)N[C@@H](C)C(=O)N[C@@H](CC(C)C)C(=O)N[C@@H](CC(C)C)C(=O)N[C@@H](CCCNC(=N)N)C(=O)N[C@@H](CCCNC(=N)N)C(=O)N[C@@H](CC(C)C)C(=O)N[C@@H](CCC(=O)O)C(=O)N[C@@H](C)C(=O)N[C@@H](Cc2ccccc2)C(=O)N[C@@H](CCC(=O)O)C(N)=O)C(C)C)NC(=O)[C@H](CCCNC(=N)N)NC(=O)[C@H](C(C)C)NC(=O)[C@H]([C@@H](C)O)NC1=O` [P1] (Ac-GLPI[S5]TVR[S5]VALLRRLEAFE-NH2; staple 5-9) returned a helicity in the data set “circular dichroism” of 16%. Further, the Kd in data set [2] is 140 ± 77 nM.
As to `CC[C@H](C)[C@H](NC(=O)[C@@H]1CCCN1C(=O)[C@H](CC(C)C)NC(=O)CNC(C)=O)C(=O)N[C@@H](CO)C(=O)N[C@H](C(=O)N[C@H](C(=O)N[C@@H](CCCNC(=N)N)C(=O)N[C@@]1(C)CCCC=CCCC[C@@](C)(C(=O)N[C@@H](CCCNC(=N)N)C(=O)N[C@@H](CCCNC(=N)N)C(=O)N[C@@H](CC(C)C)C(=O)N[C@@H](CCC(=O)O)C(=O)N[C@@H](C)C(=O)N[C@@H](Cc2ccccc2)C(=O)N[C@@H](CCC(=O)O)C(N)=O)NC(=O)[C@H](CC(C)C)NC(=O)[C@H](C)NC(=O)[C@H](C(C)C)NC1=O)C(C)C)[C@@H](C)O` [P2] (Ac-GLPISTVR[S5]VAL[S5]RRLEAFE-NH2; staple 9-13), the helicity in the data set “circular dichroism” came out at 55%. The Kd in data set [2] stood at 245 ± 84 nM.
In turn, `CC[C@H](C)[C@H](NC(=O)[C@@H]1CCCN1C(=O)[C@H](CC(C)C)NC(=O)[C@H](C)N)C(=O)N[C@@H](CO)C(=O)N[C@H](C(=O)N[C@H](C(=O)N[C@@H](CCCNC(=N)N)C(=O)N[C@@]1(C)CCCC=CCCC[C@@](C)(C(=O)N[C@@H](CCCNC(=N)N)C(=O)N[C@@H](CCCNC(=N)N)C(=O)N[C@@H](CC(C)C)C(N)=O)NC(=O)[C@H](CC(C)C)NC(=O)[C@H](C)NC(=O)[C@H](C(C)C)NC1=O)C(C)C)[C@@H](C)O` [P2shortA] (H-ALPISTVR[S5]VAL[S5]RRL-NH2; staple 9-13) displayed a helicity in the data set “circular dichroism” of 74%. Besides, the IC50 with A549 cells turned out to be 10800 ± 260 nM. In data set [3], this molecule showed a blood distribution half-life of 0.4 h and a blood elimination half-life of 39 h. In addition, in [4], the “lung damage by HE staining” value is on record as “did not reveal any lung damage”.
The molecule `CC[C@H](C)[C@H](NC(=O)[C@@H]1CCCN1C(=O)[C@H](CC(C)C)NC(=O)[C@H](CS)NC(C)=O)C(=O)N[C@@H](CO)C(=O)N[C@H](C(=O)N[C@H](C(=O)N[C@@H](CCCNC(=N)N)C(=O)N[C@@]1(C)CCCC=CCCC[C@@](C)(C(=O)N[C@@H](CCCNC(=N)N)C(=O)N[C@@H](CCCNC(=N)N)C(=O)N[C@@H](CC(C)C)C(N)=O)NC(=O)[C@H](CC(C)C)NC(=O)[C@H](C)NC(=O)[C@H](C(C)C)NC1=O)C(C)C)[C@@H](C)O` [P2short] (Ac-CLPISTVR[S5]VAL[S5]RRL-NH2; staple 9-13) had a helicity in “circular dichroism” of 77%. Further, the Kd in [2] is 56 ± 19 nM.
Molecule `CC[C@H](C)[C@H](NC(=O)[C@@H]1CCCN1C(=O)[C@H](CC(C)C)NC(=O)CNC(C)=O)C(=O)N[C@@]1(C)CCCC=CCCC[C@@](C)(C(=O)N[C@H](C(=O)N[C@@H](C)C(=O)N[C@@H](CC(C)C)C(=O)N[C@@]2(C)CCCC=CCCC[C@@](C)(C(=O)N[C@@H](C)C(=O)N[C@@H](Cc3ccccc3)C(=O)N[C@@H](CCC(=O)O)C(N)=O)NC(=O)[C@H](CC(C)C)NC(=O)[C@H](CCCNC(=N)N)NC(=O)[C@H](CCCNC(=N)N)NC2=O)C(C)C)NC(=O)[C@H](CCCNC(=N)N)NC(=O)[C@H](C(C)C)NC(=O)[C@H]([C@@H](C)O)NC1=O` [P4] (Ac-GLPI[S5]TVR[S5]VAL[S5]RRL[S5]AFE-NH2; staple 5-9, 13-17) showed a helicity in the data set “circular dichroism” of 26%. In data set [2], this molecule registered a Kd of 109 ± 29 nM.
For the molecule “GST-cyclin D1 (from UniProt P24385 1-295) (natural protein)”, the Kd in [5] stood at 43 nM.
mant-ATP: the Kd turned out to be 5 ± 2 nM on CDK4/cyclin D1 (P2short 2-fold excess, read-out: Kd of mant-ATP for CDK4/cyclin D1 in the presence of P2short) and 27 ± 13 nM at CDK4/cyclin D1 (no peptide, read-out: Kd of mant-ATP for CDK4/cyclin D1 complex alone).

B1: TP2-Rho-labelled P2short stapled peptide (peptide)
chain: Ac-C(TP2‑Rho)GLPISTVR[S5]VAL[S5]RRL-NH2
modifications: staple 10-14; reading uncertain
On to B1, for which the Kd is 25 nM in the data set with GST-cyclin A, 10 nM with GST-cyclin E, 47 nM in the data set with GST-cyclin Y and 12 nM with GST-cyclin D1.
